Test results published in patent publication US20110191903A1, “ENGINEERING PLANT RESISTANCE TO DISEASES CAUSED BY PATHOGENS” (Pioneer Hi-Bred International, Inc., priority 2009, published 2011).

Substrate: O=C(O)C(=O)O
Experiment: Oxalate oxidase kinetics, coupled horse radish peroxidase assay, OXOX-G
Type: biochemical, Ceriporiopsis subvermispora
Source text: Sequences of both OXOX C and G alleles were published by Escutia et al., 2005 and were deposited with EMBL: OXOX-C partial genomic DNA, Acession No. AJ746414; OXOX-C partial cDNA, Acession No. AJ563659; OXOX-G genomic DNA, Acession No. AJ563660; OXOX-G cDNA, Acession No. AJ746412. See also, Escutia et al., Cloning and sequencing of two Ceriporiopsis subvermispora bicupin oxalate oxidase allelic isoforms: implications for the reaction specificity of oxalate oxidases and decarboxylases. (2005). Based on published sequence, mature proteins of OXOX C (SEQ ID NO: 21) and G (SEQ ID NO: 22) were synthesized and fused to N-terminal barley alpha amylase signal sequence (BAA ss; SEQ ID NO:3). The fungal OXOX coding sequence was synthesized with codon usage suitable for expression in soybean (FIG. 1A) and E. coli (FIG. 1B).
The E. coli expression system was based on the published protocol of Escutia et al. Escutia et al., Cloning and sequencing of two Ceriporiopsis subvermispora bicupin oxalate oxidase allelic isoforms: implications for the reaction specificity of oxalate oxidases and decarboxylases. (2005). The coding sequence for the mature OXOX enzyme was inserted in E. coli expression vector pET32 (Invitrogen) to include a 6× histidine tag at the C-terminus. The resulting expression plasmid was transformed into E. coli strain BL21Star pLysS (Invitrogen).
E. coli cultures were grown at 37° C. At optical density 0.4, arabinose was added to a concentration or 0.4%. After another hour of growth at 37° C., MnCl2 was added to 5 mM and IPTG to 1 mM. Cultures were then grown at 25° C. for 16 hours. Cells were harvested by centrifugation at 4000 rpm for 10 min. The supernatant was discarded and cell pellets were kept at −80° C. for at least one hour. Pellets were resuspended in total 40 ml of lysis buffer with 50 mM phosphate buffer pH7, 2 mg/ml protease inhibitor (sigma P-8465), 100 mM KCL, 1/1000 lysozyme, 1/2000 endonuclease, and incubated at 37° C. with shaking for one hour, followed by sonication. Cellular debris was removed by centrifugation and the clarified supernatant was poured into a new tube. Nickel resin (Qiagen) was added. After a short period of incubation, the slurry was poured onto a column and washed with buffer. Purified OXOX protein was eluted from the resin in 50 mM succinate pH 5, 100 mM KCl. The E. coli expression procedure was scalable allowing large scale protein production for kinetic analysis as well as small scale production for high throughput screening of libraries.
Oxalate oxidase enzymatic activity was determined in a coupled reaction. Oxalate oxidase converts oxalic acid to carbon dioxide and hydrogen peroxide. In the presence of horse radish peroxidase, hydrogen peroxide reacts with 3-methyl-2-benzothiazolinone hydrazone (MBTH) and N,N-dimethylaniline (DMA) to form indamine dye, which can be detected spectrophotmetrically or colorimetrically as described by Laker, M. F., Hoffman, A. F., and Meeuse, J. D. (1980) Clinical Chemistry 26, 827-830. The coupled reaction was used for characterization of oxalate oxidase kinetic properties as well as in a screening procedure to identify oxalate oxidase variants with improved enzymatic properties.
More modest improvements in Km and Kcat were observed under lower pH conditions. Coupled reaction was preformed as described in Example 3. Enzyme kinetic parameters were determined by standard methods as described in Segel (1976) Biochemical calculations, 2nd Edition. John Wiley & Sons, London, New York, Sydney, Toronto.

B1: Ceriporiopsis subvermispora oxalate oxidase OXOX-G, SEQ ID NO: 19 (Gelatoporia subvermispora) (protein)
chain: RPTGNDVFYLPRAVAVSSAGASSPASLSSGTESSSAAEPTETVPFASDDPNPRLWNIDTQDLSVVAPERGPLGAKIIGPDNLPLDIQNADTLAPPTTDSGSIPNAKWPFALSHNTLYTGGWVRIQNNEVLPIAKAMAGVNMRLEAGTIRELHWHNTPEWAYILKGTTQITAVDENGKNYLANVGPGDLWYFPEGMPHSLQGTNASDEGSEFLLIFPDGTFDASNQFMITDWLAHTPKDVIAKNFGVDISEFDRLPSHDLYIFPGVAPPLDATAPEDPQGTIPLPYSFEFSKVVPTQYAGGTVKIADTRTFPISKTISVAEITVEPGAMRELHWHPTEDEWTFFIEGQARVTLFAGESNAQTYDYQGGDIAYIPTAYGHYVENSGNTTLRFLEIFNSPLFQDVSLTQWLANTPRAIVKATLQLSDNVIDSLNKSKAFVVASD
other: pH 3.8, pH 3.8
  Km: 400 µM
  kcat: 4.80 s⁻¹
other: pH 4.8, pH 4.8
  Km: 1370 µM
  kcat: 2.56 s⁻¹
other: pH 5.8, pH 5.8
  Km: 6140 µM
  kcat: 0.82 s⁻¹
